What was measured:
rabbit IL-1beta = rabbit IL-1beta (rabbit, UniProt P14628 117-268, limits assumed); assay: SPR (BIAcore)
human IL-1beta [1] = target: T1, human IL-1beta (human, UniProt P01584 117-269); assay: cell-based or functional assay
human IL-1beta [2] = target: T1, human IL-1beta; assay: cell-based or functional assay; remark: listed apart in the source
human IL-1beta [3] = target: T1, human IL-1beta; assay: cell-based or functional assay; remark: listed apart in the source
murine IL-1beta [4] = target: T2, murine IL-1beta (murine, UniProt P10749 118-269); assay: ELISA, murine IL-1beta coated, Example 6
T2 sequence (P10749 118-269 limits assumed): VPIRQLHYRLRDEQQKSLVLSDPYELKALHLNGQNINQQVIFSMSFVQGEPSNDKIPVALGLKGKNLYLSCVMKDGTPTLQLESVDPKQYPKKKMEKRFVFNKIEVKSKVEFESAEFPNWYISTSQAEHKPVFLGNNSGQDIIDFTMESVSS
Method: (§1) The binding analysis was carried out using an enzyme-linked immunosorbent assay (ELISA)-based technology. […] The EC₅₀ was calculated with a four parameter logistic model using GraphPad Prism 6.0 software.

cynomolgus IL-1beta [5] = target: T3, cynomolgus IL-1beta (cynomolgus, UniProt P79182 117-268); assay: ELISA, cynomolgus IL-1beta coated, Example 5
Method: as §1

[6] = target: T4, His-tagged human IL-1beta (human, UniProt P01584 117-269); assay: ELISA, His-tagged human IL-1beta coated, Example 4 variant 2
T4 construct: also called human His-tagged IL-1beta protein (Sino Biologics 10139-H07E); not shown: His tag

human IL-1beta [7] = target: T1, human IL-1beta; assay: ELISA, human IL-1beta (Peprotech) coated, Example 4 variant 1
Method: as §1

murine IL-1beta [8] = target: T2, murine IL-1beta; assay: ELISA, murine IL-1beta coated, Example 6; based on MW 150 kDa
Method: as §1

human IL-1beta [9] = target: T1, human IL-1beta; assay: SPR (BIAcore); antibody captured by anti-Fc, IL-1beta injected
Method: (§2) All experiments were performed at 25° C. using HBS-P (10 mM His, 140 mM NaCl, 0.05% Tween 20 pH 7.4) as running and dilution buffer. Anti-human or anti-mouse Fc antibodies were immobilized on a Series S CM5 Sensor Chip (GE Healthcare) using standard amine coupling chemistry. […] The dissociation phase was monitored for 600 sec by washing with running buffer. […] The surface was regenerated by injecting 3 M MgCl2 (for anti-human Fc antibody) or 10 mM Glycine pH 1.5 (for anti-mouse Fc antibody) for 60 sec at a flow rate of 5 μl/min. Bulk refractive index differences were corrected by subtracting the response obtained from a mock surface. Blank injections were subtracted (double referencing). The derived curves were fitted to a 1:1 Langmuir binding model using the BIAevaluation software.

cynomolgus IL-1beta [10] = target: T3, cynomolgus IL-1beta; assay: as above
Method: as §2

murine IL-1beta [11] = target: T2, murine IL-1beta; assay: as above
Method: as §2

rat IL-1beta = rat IL-1beta (rat, UniProt Q63264 117-268); assay: as above
Sequence of rat IL-1beta (Q63264 117-268 limits assumed): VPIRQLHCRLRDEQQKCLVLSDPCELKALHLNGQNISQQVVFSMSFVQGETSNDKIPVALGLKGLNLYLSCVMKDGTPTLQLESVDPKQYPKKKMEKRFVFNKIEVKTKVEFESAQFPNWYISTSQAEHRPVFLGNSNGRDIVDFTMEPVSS
Method: as §2

cynomolgus IL-1beta [12] = target: T3, cynomolgus IL-1beta; assay: ELISA, cynomolgus IL-1beta coated, Example 5; based on MW 150 kDa
Method: as §1

[13] = target: T4, His-tagged human IL-1beta; assay: ELISA, His-tagged human IL-1beta coated, Example 4 variant 2; based on MW 150 kDa
Method: as §1

human IL-1beta [14] = target: T1, human IL-1beta; assay: ELISA, human IL-1beta (Peprotech) coated, Example 4 variant 1; based on MW 150 kDa
Method: as §1

human IL-1beta [15] = target: T1, human IL-1beta; assay: SPR inhibition; 10 nM human IL-1beta pre-incubated with antibody, injected over immobilised human IL-1RI (competitor)
Method: All experiments were performed at 25° C. using HBS-P (10 mM His, 140 mM NaCl, 0.05% Tween 20 pH 7.4) as running and dilution buffer. Human IL-1RI was immobilized on a Series S CM5 Sensor Chip (GE Healthcare) using standard amine coupling chemistry. […] The surface was regenerated by injecting 10 mM NaOH for 60 sec at a flow rate of 5 μl/min. Bulk refractive index differences were corrected by subtracting the response obtained from a mock surface.

[16] = target: T4, His-tagged human IL-1beta; assay: competition ELISA, His-tagged IL-1beta coated; competitor Fc-tagged human IL-1 receptor type I (Example 7); based on MW 150 kDa
Method: (§3) The IC₅₀ was calculated with a four parameter logistic model using GraphPad Prism 6.0 software.

[17] = target: T4, His-tagged human IL-1beta; assay: competition ELISA, His-tagged IL-1beta coated; competitor Fc-tagged human IL-1 receptor type II (Example 8); based on MW 150 kDa
Method: as §3

[18] = target: T4, His-tagged human IL-1beta; assay: competition ELISA, His-tagged IL-1beta coated; competitor Fc-tagged human IL-1 receptor type I (Example 7); IL-1beta receptor I (example 7)
Method: as §3

[19] = target: T4, His-tagged human IL-1beta; assay: competition ELISA, His-tagged IL-1beta coated; competitor Fc-tagged human IL-1 receptor type II (Example 8); IL-1beta receptor II (example 8)
Method: as §3

Sequence of rabbit IL-1beta (P14628 117-268 limits assumed): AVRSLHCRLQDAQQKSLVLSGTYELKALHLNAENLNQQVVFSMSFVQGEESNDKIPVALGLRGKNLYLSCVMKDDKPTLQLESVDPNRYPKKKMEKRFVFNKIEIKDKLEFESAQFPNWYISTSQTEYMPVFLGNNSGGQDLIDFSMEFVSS

Kd (rabbit IL-1beta): 1.4 nM
IC50, inhibition of ICAM-1 expression upon IL-1beta stimulation of A549 cells (human IL-1beta [1]): 0.7 nM
IC50, inhibition of ICAM-1 expression upon IL-1beta stimulation of HUVEC cells (human IL-1beta [2]): 16.5 nM
EC50, reduction of IL-6 expression upon IL-1beta stimulation of A549 cells (human IL-1beta [3]): 1.09 nM
EC50 (murine IL-1beta [4]): 0.0231 µg/mL
EC50 (cynomolgus IL-1beta [5]): 0.0213 µg/mL
EC50 [6]: 0.0152 µg/mL
EC50 (human IL-1beta [7]): 0.034 µg/mL
EC50 (murine IL-1beta [8]): 0.154 nM
Kd (human IL-1beta [9]): 0.07 nM
koff (human IL-1beta [9]): 7.5e-05 s⁻¹
kon (human IL-1beta [9]): 1.12e+06 M⁻¹ s⁻¹
Kd (cynomolgus IL-1beta [10]): 0.08 nM
koff (cynomolgus IL-1beta [10]): 9.5e-05 s⁻¹
kon (cynomolgus IL-1beta [10]): 1.15e+06 M⁻¹ s⁻¹
Kd (murine IL-1beta [11]): 0.49 nM
koff (murine IL-1beta [11]): 0.00122 s⁻¹
kon (murine IL-1beta [11]): 2.47e+06 M⁻¹ s⁻¹
Kd (rat IL-1beta): 0.31 nM
koff (rat IL-1beta): 0.000636 s⁻¹
kon (rat IL-1beta): 2.04e+06 M⁻¹ s⁻¹
EC50 (cynomolgus IL-1beta [12]): 0.142 nM
EC50 [13]: 0.101 nM
EC50 (human IL-1beta [14]): 0.227 nM
IC50 (human IL-1beta [15]): 2.5 nM
IC50 [16]: 1.54 nM
IC50 [17]: 0.88 nM
IC50 [18]: 0.231 µg/mL
IC50 [19]: 0.132 µg/mL
B1: IL-1beta-mumAb (antibody, V domains shown)
VH: EVQLQQSGPELEKPGASVKISCKASGYSFTDYNMNWVRQSNGKSLEWIGNIDPYYGGTTYNQKFKDKATLTVDKSSSTAYMQLKSLTSEDSAVYYCAREGSPTRYYVMDYWGQGTSVTVSS
VL: DIQMTQSPASLSASVGETVTITCRASENIYSNLAWYQQKQGKSPQLLVYAATNLADGVPSRFSGSGSGTQFSLKINSLQPEDFGSYYCHHFYNTPWTFGGGTKLEIK
notes: Murine antibody; also called murine anti-human IL-1beta antibody

— patent US20170240629A1 (Hoffmann-La Roche, published 2017)
